Laboratory results taken from the supplement of paper PMC11246515.
± gives the standard deviation of the averaged measurements.

Assay: total protein half-life in vivo (active degradation + dilution); higher = more stable protein
[1] = E. coli NCM3722 delta-clpP delta-lon delta-hslV, growth: N-lim chemostat, doubling time 6 h
[2] = E. coli NCM3722 delta-clpP, growth: N-lim chemostat, doubling time 6 h
[3] = E. coli NCM3722 delta-hslV, growth: N-lim chemostat, doubling time 6 h
[4] = E. coli NCM3722 delta-lon, growth: N-lim chemostat, doubling time 6 h
[5] = E. coli NCM3722 delta-smpB, growth: N-lim chemostat, doubling time 6 h
[6] = wild type E. coli NCM3722, growth: C-lim chemostat, doubling time 3 h
[7] = wild type E. coli NCM3722, growth: C-lim chemostat, doubling time 6 h
[8] = wild type E. coli NCM3722, growth: C-lim chemostat, doubling time 12 h
[9] = wild type E. coli NCM3722, growth: N-lim chemostat, doubling time 6 h
[10] = wild type E. coli NCM3722, growth: N-lim chemostat, doubling time 12 h
[11] = wild type E. coli NCM3722, growth: P-lim chemostat, doubling time 12 h
[12] = wild type E. coli NCM3722, growth: P-lim chemostat, doubling time 6 h

Row | Sequence | total protein half-life in vivo [1] | total protein half-life in vivo [2] | total protein half-life in vivo [3] | total protein half-life in vivo [4] | total protein half-life in vivo [5] | total protein half-life in vivo [6] | total protein half-life in vivo [7] | total protein half-life in vivo [8] | total protein half-life in vivo [9] | total protein half-life in vivo [10] | total protein half-life in vivo [11] | total protein half-life in vivo [12]
1 | MSQATSMRKRHRFNSRMTRIVLLISFIFFFGRFIYSSVGAWQHHQSKKEAQQSTLSVESPVQR | 4.55 h | 4.47 h | 4.32 h | 4.57 ± 0.97 h | 4.09 ± 0.36 h | 1.7 ± 0.046 h | 3.19 h | 5.95 h | 3.526 ± 0.027 h | 7.56 ± 0.76 h | 4.32 ± 0.086 h | –
2 | MSWIERIKSNITPTRKASIPEGVWTKCDSCGQVLYRAELERNLEVCPKCDHHMRMTARNRLHSLLDEGSLVELGSELEPKDVLKFRDSKKYKDRLASAQKETGEKDALVVMKGTLYGMPVVAAAFEFAFMGGSMGSVVGARFVRAVEQALEDNCPLICFSASGGARMQEALMSLMQMAKTSAALAKMQERGLPYISVLTDPTMGGVSASFAMLGDLNIAEPKALIGFAGPRVIEQTVREKLPPGFQRSEFLIEKGAIDMIVRRPEMRLKLASILAKLMNLPAPNPEAPREGVVVPPVPDQEPEA [P0A9Q5] | 5.95 ± 0.21 h | 6.46 ± 0.77 h | 6.167 ± 0.012 h | 5.92 ± 0.97 h | 5.66 ± 0.42 h | 3.03 ± 0.31 h | 6.15 ± 0.42 h | 11.2 ± 0.44 h | 6.06 ± 0.44 h | 12.1 ± 0.061 h | 12.3 ± 0.26 h | 5.81 ± 0.093 h
3 | MTAIAPVITIDGPSGAGKGTLCKAMAEALQWHLLDSGAIYRVLALAALHHHVDVASEDALVPLASHLDVRFVSTNGNLEVILEGEDVSGEIRTQEVANAASQVAAFPRVREALLRRQRAFRELPGLIADGRDMGTVVFPDAPVKIFLDASSEERAHRRMLQLQEKGFSVNFERLLAEIKERDDRDRNRAVAPLVPAADALVLDSTTLSIEQVIEKALQYARQKLALA [P0A6I0] | 4.56 ± 0.24 h | 4.93 ± 0.48 h | 4.14 ± 0.16 h | 4.79 ± 0.34 h | 3.86 ± 0.083 h | 3.05 ± 0.14 h | 5.44 ± 0.4 h | 9.23 ± 1.1 h | 4.15 ± 0.046 h | 6.34 ± 1.1 h | 9.34 ± 0.78 h | 4.71 ± 0.26 h
4 | MEGSDFLLAGVLFLFAAVAAVPLASRLGIGAVLGYLLAGIAIGPWGLGFISDVDEILHFSELGVVFLMFIIGLELNPSKLWQLRRSIFGVGAAQVLLSAALLAGLLMLTDFAWQAAVVGGIGLAMSSTAMALQLMREKGMNRSESGQLGFSVLLFQDLAVIPALALVPLLAGSADEHFDWMKVGMKVLAFVGMLIGGRYLLRPVFRFIAASGVREVFTAATLLLVLGSALFMDALGLSMALGTFIAGVLLAESEYRHELETAIDPFKGLLLGLFFISVGMSLNLGVLYTHLLWVVISVVVLVAVKILVLYLLARLYGVRSSERMQFAGVLSQGGEFAFVLFSTASSQRLFQGDQMALLLVTVTLSMMTTPLLMKLVDKWLSRQFNGPEEEDEKPWVNDDKPQVIVVGFGRFGQVIGRLLMANKMRITVLERDISAVNLMRKYGYKVYYGDATQVDLLRSAGAEAAESIVITCNEPEDTMKLVEICQQHFPHLHILARARGRVEAHELLQAGVTQFSRETFSSALELGRKTLVTLGMHPHQAQRAQLHFRRLDMRMLRELIPMHADTVQISRAREARRELEEIFQREMQQERRQLDGWDEFE | 7.22 ± 0.56 h | – | – | 6.81 ± 1.1 h | 6.39 ± 1.5 h | – | 5.87 ± 0.17 h | – | 5.996 ± 0.021 h | 13.6 ± 2 h | – | 7.09 ± 1.1 h
5 | MSAGKLPEGWVIAPVSTVTTLIRGVTYKKEQAINYLKDDYLPLIRANNIQNGKFDTTDLVFVPKNLVKESQKISPEDIVIAMSSGSKSVVGKSAHQHLPFECSFGAFCGVLRPEKLIFSGFIAHFTKSSLYRNKISSLSAGANINNIKPASFDLINIPIPPLAEQKIIAEKLDTLLAQVDSTKARFEQIPQILKRFRQAVLGGAVNGKLTEKWRNFEPQHSVFKKLNFESILTELRNGLSSKPNESGVGHPILRISSVRAGHVDQNDIRFLECSESELNRHKLQDGDLLFTRYNGSLEFVGVCGLLKKLQHQNLLYPDKLIRARLTKDALPEYIEIFFSSPSARNAMMNCVKTTSGQKGISGKDIKSQVVLLPPVKEQAEIVRRVEQLFAYADTIEKQVNNALARVNNLTQSILAKAFRGELTAQWRAENPDLISGENSAAALLEKIKAERAASGGKKASRKKS | 5.47 ± 0.81 h | 5.86 ± 0.12 h | 5.48 ± 0.098 h | 6.44 ± 0.56 h | 5.68 ± 0.34 h | 3.08 ± 0.36 h | 6.03 ± 0.34 h | 10.9 ± 0.68 h | 5.84 ± 0.44 h | 10.7 ± 0.57 h | 10.9 ± 0.15 h | 5.46 ± 0.33 h
6 | MVAVRSAHINKAGEFDPEKWIASLGITSQKSCECLAETWAYCLQQTQGHPDASLLLWRGVEMVEILSTLSMDIDTLRAALLFPLADANVVSEDVLRESVGKSVVNLIHGVRDMAAIRQLKATHTDSVSSEQVDNVRRMLLAMVDDFRCVVIKLAERIAHLREVKDAPEDERVLAAKECTNIYAPLANRLGIGQLKWELEDYCFRYLHPTEYKRIAKLLHERRLDREHYIEEFVGHLRAEMKAEGVKAEVYGRPKHIYSIWRKMQKKNLAFDELFDVRAVRIVAERLQDCYAALGIVHTHYRHLPDEFDDYVANPKPNGYQSIHTVVLGPGGKTVEIQIRTKQMHEDAELGVAAHWKYKEGAAAGGARSGHEDRIAWLRKLIAWQEEMADSGEMLDEVRSQVFDDRVYVFTPKGDVVDLPAGSTPLDFAYHIHSDVGHRCIGAKIGGRIVPFTYQLQMGDQIEIITQKQPNPSRDWLNPNLGYVTTSRGRSKIHAWFRKQDRDKNILAGRQILDDELEHLGISLKEAEKHLLPRYNFNDVDELLAAIGGGDIRLNQMVNFLQSQFNKPSAEEQDAAALKQLQQKSYTPQNRSKDNGRVVVEGVGNLMHHIARCCQPIPGDEIVGFITQGRGISVHRADCEQLAELRSHAPERIVDAVWGESYSAGYSLVVRVVANDRSGLLRDITTILANEKVNVLGVASRSDTKQQLATIDMTIEIYNLQVLGRVLGKLNQVPDVIDARRLHGS [P0AG20] | 5.7 ± 0.41 h | 5.46 ± 0.31 h | 4.65 ± 0.24 h | 4.99 ± 0.054 h | 4.36 ± 0.23 h | 2.68 ± 0.21 h | 4.87 ± 0.11 h | 8.04 ± 0.43 h | 4.74 ± 0.17 h | 7.78 ± 0.22 h | 9.13 ± 0.26 h | 4.8 ± 0.23 h
